Source: publication PMC10759339, “Expression of NELL2/NICOL-ROS1 lumicrine signaling-related molecules in the human male reproductive tract” (Reproductive Biology and Endocrinology : RB&E, 2024)

T1: C-terminally 6×His-tagged recombinant human NELL2 protein (human, UniProt Q99435 22-816)
T1 construct: Neural EGF-like like 2 (NELL2), human; also called Neural EGF-like like 2
T1 sequence (looked up): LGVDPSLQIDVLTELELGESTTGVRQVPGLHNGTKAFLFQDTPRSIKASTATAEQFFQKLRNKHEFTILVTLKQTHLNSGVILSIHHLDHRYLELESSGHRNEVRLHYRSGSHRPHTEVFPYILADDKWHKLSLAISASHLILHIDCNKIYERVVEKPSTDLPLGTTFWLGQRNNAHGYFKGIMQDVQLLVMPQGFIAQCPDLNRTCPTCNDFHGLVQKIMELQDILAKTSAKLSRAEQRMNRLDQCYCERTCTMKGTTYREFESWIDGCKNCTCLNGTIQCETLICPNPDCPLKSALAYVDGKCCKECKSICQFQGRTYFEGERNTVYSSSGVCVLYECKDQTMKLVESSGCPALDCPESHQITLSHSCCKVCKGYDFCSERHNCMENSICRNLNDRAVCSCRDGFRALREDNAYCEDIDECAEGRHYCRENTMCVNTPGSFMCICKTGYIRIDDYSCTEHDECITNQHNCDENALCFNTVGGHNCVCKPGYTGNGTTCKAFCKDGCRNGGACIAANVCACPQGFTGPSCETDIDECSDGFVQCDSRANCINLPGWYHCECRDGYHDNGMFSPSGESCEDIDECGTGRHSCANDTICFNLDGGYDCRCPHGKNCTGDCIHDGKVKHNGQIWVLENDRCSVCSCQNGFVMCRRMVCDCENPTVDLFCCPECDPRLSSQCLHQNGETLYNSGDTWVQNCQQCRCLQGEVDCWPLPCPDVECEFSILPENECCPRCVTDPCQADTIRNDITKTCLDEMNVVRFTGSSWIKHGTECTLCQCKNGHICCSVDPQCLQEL


Columns and labels:
NICOL (Mus musculus) = NICOL (Mus musculus) (UniProt Q3UR78); details: cited from earlier work
NICOL (Mus musculus), sequence (Q3UR78 29-90): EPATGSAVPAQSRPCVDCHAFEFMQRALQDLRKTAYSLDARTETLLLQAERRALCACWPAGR

[1] = biological target: T1, C-terminally 6×His-tagged recombinant …; experiment: SPR; purified human NELL2 immobilised on a series S sensor chip CM5 as ligand; purified human NICOL in PBS as analyte at increasing concentration; Biacore T200; details: both partners purified

NELL2, sequence (Q61220 25-819): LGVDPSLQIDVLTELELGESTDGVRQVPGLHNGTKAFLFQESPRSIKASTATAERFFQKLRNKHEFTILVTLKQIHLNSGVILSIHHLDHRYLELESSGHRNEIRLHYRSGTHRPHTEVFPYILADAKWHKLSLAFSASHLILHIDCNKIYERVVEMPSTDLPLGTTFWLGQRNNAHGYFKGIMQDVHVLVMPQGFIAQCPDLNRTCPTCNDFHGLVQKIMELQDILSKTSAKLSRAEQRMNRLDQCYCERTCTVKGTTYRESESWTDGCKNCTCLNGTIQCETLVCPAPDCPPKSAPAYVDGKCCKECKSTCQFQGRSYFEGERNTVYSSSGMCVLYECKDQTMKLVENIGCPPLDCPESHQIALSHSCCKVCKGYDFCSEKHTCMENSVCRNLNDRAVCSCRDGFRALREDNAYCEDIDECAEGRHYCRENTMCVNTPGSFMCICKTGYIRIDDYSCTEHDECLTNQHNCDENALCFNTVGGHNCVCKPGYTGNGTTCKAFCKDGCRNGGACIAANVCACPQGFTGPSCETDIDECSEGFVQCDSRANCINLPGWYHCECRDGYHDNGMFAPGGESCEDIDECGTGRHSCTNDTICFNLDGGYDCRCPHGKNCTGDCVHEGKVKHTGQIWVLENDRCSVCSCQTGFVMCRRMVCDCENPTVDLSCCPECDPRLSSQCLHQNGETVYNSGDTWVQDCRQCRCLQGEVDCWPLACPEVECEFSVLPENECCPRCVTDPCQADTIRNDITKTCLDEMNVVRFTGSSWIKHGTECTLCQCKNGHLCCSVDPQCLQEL

Row | Molecule | Kd (NICOL (Mus musculus)) [nM] | Kd [1] [nM] | koff [1] [s⁻¹] | kon [1] [M⁻¹ s⁻¹]
1 | NELL2 (from UniProt Q61220) | 87 | – | – | –
2 | C-terminally 6×His-tagged human NICOL protein (ligand, UniProt Q5BLP8 35-95, looked up, also called C4orf48) EPAGSAVPAQSRPCVDCHAFEFMQRALQDLRKTACSLDARTETLLLQAERRALCACWPAGH | – | 110 | 0.00098 | 9100
